Data published in US20070065878A1.

Key:
[1] = biological target: T1, D07 (TEV substrate clone, 5X library)
T1 chain: REVLY

[2] = biological target: T2, F05 (TEV substrate clone, 5X library)
T2 chain: DRELY

[3] = biological target: T3, A05 (TEV substrate clone, 5X library)
T3 chain: FEDLL

[4] = biological target: T4, A06 (TEV substrate clone, 5X library)
T4 chain: FEDGL

[5] = biological target: T5, D08 (TEV substrate clone, 5X library)
T5 chain: LEWLK

[6] = biological target: T6, H09 (TEV substrate clone, 5X library)
T6 chain: GEALF

[7] = biological target: T7, E4 (TEVopt library clone)
T7 chain: SLYVQG

[8] = biological target: T8, D01 (TEV substrate clone, 5X library; as in Table 6)
T8 chain: GEVLW

[9] = biological target: T9, C09 (TEV substrate clone, 5X library)
T9 chain: RELVY

[10] = biological target: T10, G03 (TEV substrate clone, 5X library)
T10 chain: GDMGY

[11] = biological target: T11, C04 (TEV substrate clone, 5X library)
T11 chain: RRMAE

[12] = biological target: T12, C3 (TEVopt library clone)
T12 chain: DLYWQG

[13] = biological target: T13, E05 (TEV substrate clone, 5X library)
T13 chain: RDDGY

[14] = biological target: T14, C6 (TEVopt library clone)
T14 chain: QLYFQS

[15] = biological target: T15, H11 (TEV substrate clone, 5X library)
T15 chain: AEWGR

[16] = biological target: T16, F03 (TEV substrate clone, 5X library)
T16 chain: LESLV

[17] = biological target: T17, D5 (TEVopt library clone)
T17 chain: SLYWQG

[18] = biological target: T18, C4 (TEVopt library clone)
T18 chain: ELYWQG

[19] = biological target: T19, F07 (TEV substrate clone, 5X library)
T19 chain: EENLG

[20] = biological target: T20, B09 (TEV substrate clone, 5X library)
T20 chain: LEQLI

[21] = biological target: T21, E09 (TEV substrate clone, 5X library)
T21 chain: SEPLR

[22] = biological target: T22, E6 (TEVopt library clone)
T22 chain: VLYTQG

[23] = biological target: T23, B02 (TEV substrate clone, 5X library)
T23 chain: EEELY

[24] = biological target: T24, B07 (TEV substrate clone, 5X library)
T24 chain: MEEVY

[25] = biological target: T25, G02 (TEV substrate clone, 5X library)
T25 chain: GEAGF

[26] = biological target: T26, G05 (TEV substrate clone, 5X library)
T26 chain: LRELW

[27] = biological target: T27, C10 (TEV substrate clone, 5X library)
T27 chain: PEVIY

[28] = biological target: T28, A2 (TEVopt library clone)
T28 chain: DVYVQG

[29] = biological target: Control (TEV substrate ENLYFQS)
[30] = biological target: T29, A4 (TEVopt library clone)
T29 chain: VLYLQS

[31] = biological target: T30, G08 (TEV substrate clone, 5X library)
T30 chain: MEWLW

[32] = biological target: T31, A1 (TEVopt library clone)
T31 chain: FLYLQG

[33] = biological target: T32, H08 (TEV substrate clone, 5X library)
T32 chain: WEPLW

[34] = biological target: T33, D10 (TEV substrate clone, 5X library)
T33 chain: LYFQG

[35] = biological target: T34, E11 (TEV substrate clone, 5X library)
T34 chain: WESLY

[36] = biological target: T35, D1 (TEVopt library clone)
T35 chain: WLYLQG

[37] = biological target: T36, D11 (TEV substrate clone, 5X library)
T36 chain: GEHVY

[38] = biological target: T37, F09 (TEV substrate clone, 5X library)
T37 chain: GEDLL

[39] = biological target: T38, F11 (TEV substrate clone, 5X library)
T38 chain: GEPLW

[40] = biological target: T39, C07 (TEV substrate clone, 5X library)
T39 chain: VEPIY

[41] = biological target: T40, H07 (TEV substrate clone, 5X library)
T40 chain: EEAVL

[42] = biological target: T41, H03 (TEV substrate clone, 5X library)
T41 chain: ARQIR

[43] = biological target: T42, D02 (TEV substrate clone, 5X library)
T42 chain: DSELY

[44] = biological target: T43, F02 (TEV substrate clone, 5X library)
T43 chain: EEYLW

[45] = biological target: T44, D04 (TEV substrate clone, 5X library)
T44 chain: GEALF

[46] = biological target: D03 (TEV substrate clone, 5X library)
[47] = biological target: T45, A3 (TEVopt library clone)
T45 chain: ALYIQG

[48] = biological target: T46, B6 (TEVopt library clone)
T46 chain: EVYVQG

[49] = biological target: T47, D09 (TEV substrate clone, 5X library)
T47 chain: MEMLR

[50] = biological target: T48, D4 (TEVopt library clone)
T48 chain: LLYIQG

[51] = biological target: T49, H06 (TEV substrate clone, 5X library)
T49 chain: EEELW

[52] = biological target: T50, D01 (TEV substrate clone, 5X library; as in Table 5A)
T50 chain: DVQLY

[53] = biological target: T51, C11 (TEV substrate clone, 5X library)
T51 chain: DGALY

[54] = biological target: T52, F04 (TEV substrate clone, 5X library)
T52 chain: DRELY

[55] = biological target: T53, G06 (TEV substrate clone, 5X library)
T53 chain: SEDLW

[56] = biological target: T54, E01 (TEV substrate clone, 5X library)
T54 chain: EEYLW

[57] = biological target: T55, E07 (TEV substrate clone, 5X library)
T55 chain: ETILY

[58] = biological target: T56, H04 (TEV substrate clone, 5X library)
T56 chain: MEDLM

[59] = biological target: T57, C5 (TEVopt library clone)
T57 chain: ELYAQG

[60] = biological target: E03 (TEV substrate clone, 5X library)
[61] = biological target: T58, B11 (TEV substrate clone, 5X library)
T58 chain: GETVY

[62] = biological target: T59, D05 (TEV substrate clone, 5X library)
T59 chain: GEAGV

[63] = biological target: T60, C05 (TEV substrate clone, 5X library)
T60 chain: REVGY
For % Conversion in this document: test concentration or dose not given here.
For Conversion (group heading of the table) in this document: test concentration or dose not given here.

B1: tobacco etch virus protease (protein)
chain: GESLFKGPRDYNPISSTICHLTNESDGHTTSLYGIGFGPFIITNKHLFRRNNGTLLVQSLHGVFKVKNTTTLQQHLIDGRDMIIIRMPKDFPPFPQKLKFREPQREERICLVTTNFQTKSMSSMVSDTSCTFPSSDGIFWKHWIQTKDGQCGSPLVSTRDGFIVGIHSASNFTNTNNYFTSVPKNFMELLTNQEAQQWVSGWRLNADSVLWGGHKVFMSKPEEPFQPVKEATQLMNELVYSQ
[1]
  Conversion (group heading of the table): 60%-90% Conversion
[2]
  Conversion (group heading of the table): 50%-60% Conversion
[3]
  Conversion (group heading of the table): 50%-60% Conversion
[4]
  Conversion (group heading of the table): 30%-50% conversion
[5]
  Conversion (group heading of the table): 60%-90% Conversion
[6]
  Conversion (group heading of the table): 60%-90% Conversion
[7]
  % Conversion (fraction (head says % Conversion)): 0.863
[8]
  % Conversion (fraction (head says % Conversion)): 0.87
  Fl (fluorescence without TEV): 3840
  Fl after TEV: 725
[9]
  Conversion (group heading of the table): 30%-50% conversion
[10]
  Conversion (group heading of the table): 30%-50% conversion
[11]
  Conversion (group heading of the table): 60%-90% Conversion
[12]
  % Conversion (fraction (head says % Conversion)): 0.734
[13]
  Conversion (group heading of the table): 30%-50% conversion
[14]
  % Conversion (fraction (head says % Conversion)): 0.618
[15]
  Conversion (group heading of the table): 30%-50% conversion
[16]
  Conversion (group heading of the table): 60%-90% Conversion
[17]
  % Conversion (fraction (head says % Conversion)): 0.717
[18]
  % Conversion (fraction (head says % Conversion)): 0.689
[19]
  Conversion (group heading of the table): 50%-60% Conversion
[20]
  % Conversion (fraction (head says % Conversion)): 0.76
  Conversion (group heading of the table): 60%-90% Conversion
  Fl (fluorescence without TEV): 3250
  Fl after TEV: 980
[21]
  Conversion (group heading of the table): 60%-90% Conversion
[22]
  % Conversion (fraction (head says % Conversion)): 0.549
[23]
  % Conversion (fraction (head says % Conversion)): 0.72
  Conversion (group heading of the table): 60%-90% Conversion
  Fl (fluorescence without TEV): 3270
  Fl after TEV: 1080
[24]
  Conversion (group heading of the table): 50%-60% Conversion
[25]
  Conversion (group heading of the table): 30%-50% conversion
[26]
  Conversion (group heading of the table): 60%-90% Conversion
[27]
  % Conversion (fraction (head says % Conversion)): 0.81
  Conversion (group heading of the table): 60%-90% Conversion
  Fl (fluorescence without TEV): 6110
  Fl after TEV: 1380
[28]
  % Conversion (fraction (head says % Conversion)): 0.526
[29]
  % Conversion (fraction (head says % Conversion)): 0.664
[30]
  % Conversion (fraction (head says % Conversion)): 0.854
[31]
  Conversion (group heading of the table): 60%-90% Conversion
[32]
  % Conversion (fraction (head says % Conversion)): 0.918
[33]
  % Conversion (fraction (head says % Conversion)): 0.73
  Conversion (group heading of the table): 60%-90% Conversion
  Fl (fluorescence without TEV): 3970
  Fl after TEV: 1250
[34]
  Conversion (group heading of the table): 60%-90% Conversion
[35]
  % Conversion (fraction (head says % Conversion)): 0.77
  Conversion (group heading of the table): 60%-90% Conversion
  Fl (fluorescence without TEV): 5050
  Fl after TEV: 1360
[36]
  % Conversion (fraction (head says % Conversion)): 0.68
[37]
  Conversion (group heading of the table): 60%-90% Conversion
[38]
  % Conversion (fraction (head says % Conversion)): 0.71
  Conversion (group heading of the table): 60%-90% Conversion
  Fl (fluorescence without TEV): 4810
  Fl after TEV: 1550
[39]
  Conversion (group heading of the table): 50%-60% Conversion
[40]
  Conversion (group heading of the table): 30%-50% conversion
[41]
  % Conversion (fraction (head says % Conversion)): 0.71
  Conversion (group heading of the table): 60%-90% Conversion
  Fl (fluorescence without TEV): 2990
  Fl after TEV: 1040
[42]
  Conversion (group heading of the table): 30%-50% conversion
[43]
  Conversion (group heading of the table): 60%-90% Conversion
[44]
  Conversion (group heading of the table): 30%-50% conversion
[45]
  Conversion (group heading of the table): 50%-60% Conversion
[46]
  Conversion (group heading of the table): 60%-90% Conversion
[47]
  % Conversion (fraction (head says % Conversion)): 0.922
[48]
  % Conversion (fraction (head says % Conversion)): 0.61
[49]
  Conversion (group heading of the table): 60%-90% Conversion
[50]
  % Conversion (fraction (head says % Conversion)): 0.517
[51]
  Conversion (group heading of the table): 60%-90% Conversion
[52]
  Conversion (group heading of the table): 60%-90% Conversion
[53]
  Conversion (group heading of the table): 50%-60% Conversion
[54]
  % Conversion (fraction (head says % Conversion)): 0.79
  Conversion (group heading of the table): 60%-90% Conversion
  Fl (fluorescence without TEV): 5910
  Fl after TEV: 1420
[55]
  Conversion (group heading of the table): 60%-90% Conversion
[56]
  Conversion (group heading of the table): 50%-60% Conversion
[57]
  Conversion (group heading of the table): 50%-60% Conversion
[58]
  Conversion (group heading of the table): 50%-60% Conversion
[59]
  % Conversion (fraction (head says % Conversion)): 0.588
[60]
  Conversion (group heading of the table): 60%-90% Conversion
[61]
  Conversion (group heading of the table): 30%-50% conversion
[62]
  Conversion (group heading of the table): 30%-50% conversion
[63]
  Conversion (group heading of the table): 30%-50% conversion
